This note sets out measurements from patent US20190263922A1 (TIGA TX, published 2019).

Experiment [1] concerns the target T1, human CD20 (human, UniProt P11836 1-297).
T1 construct: whole, on cells; Always presented on cells; also called MS4A1; CD20 WT
T1 sequence (looked up): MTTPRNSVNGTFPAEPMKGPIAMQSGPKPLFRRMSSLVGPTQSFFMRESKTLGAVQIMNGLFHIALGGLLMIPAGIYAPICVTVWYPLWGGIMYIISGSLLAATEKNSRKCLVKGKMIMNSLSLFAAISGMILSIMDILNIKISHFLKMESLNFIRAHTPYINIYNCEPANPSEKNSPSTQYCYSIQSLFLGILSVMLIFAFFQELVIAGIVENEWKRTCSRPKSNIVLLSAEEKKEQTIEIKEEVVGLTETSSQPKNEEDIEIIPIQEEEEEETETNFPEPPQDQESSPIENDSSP
The experiment in a line: binding assay, parental against L11V version, data not shown.

Experiment [2] addresses T1, human CD20. The experiment in a line: LigandTracer Green, 10 nM FITC-labeled mAb on SKBR3-CD20 cells, OneToOne fit, non-competitive dissociation. On the procedure:
(§1) Kinetics analysis of interactions between the mAbs and CD20 was performed by using the LigandTracer green Technology (Ridgeview Instruments AB). 10⁶ SKBR3-CD20 cells were seeded on one side of a 10 cm culture dish (Greiner) as target cell area and association of 10 nM FITC-labeled CD20 mAb was measured. For non-competitive or competitive dissociation, labeled mAb solution was replaced by RPMI culture medium or 100 nM unlabeled mAb of the same clone, respectively. Analysis was performed using an OneToOne fitting model in TraceDrawer (Ridgeview Instruments AB).
(§2) A slow Ab off-rate might favor the formation of Ab-Clq complexes, the first component of the classical complement pathway. […] To characterize interaction kinetics and affinity of mAbs, we used the LigandTracer technology to record real-time binding and dissociation of Abs to cellular receptors.

Experiment [3] deals with T2, circular peptide YNCEPANPSEKNSPSTQYCYS (human, circular (cysteine-based loop, Pepscan technology); covalently linked to the plate).
T2 peptide: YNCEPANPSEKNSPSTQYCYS
The experiment in a line: PepScan ELISA, 1 ug/mL mAb on plate-linked peptide. The procedure:
(§3) Recognition of peptides by the CD20 mAb was assessed in a PepScan-based ELISA as previously described. ⁽²⁰⁾ Briefly, 1 μg/mL mAb was added to plates with covalently linked peptides and incubated overnight at 4° C. After extensive washing, bound mAb was detected with a HRP-linked rabbit-anti-mIgG (DakoCytomation) for 1 h at 25° C. Unbound detection Ab was washed away. Plates were developed using ABTS substrate and color development quantified using a CCD camera and an image-processing system.

Experiment [4] has as its target T3, linear peptide NSPSTQYGPANPSEK (human, also: covalently linked to the plate).
T3 peptide: NSPSTQYGPANPSEK
The experiment in a line: PepScan ELISA, 1 ug/mL mAb on plate-linked peptide. On the procedure: as §3

The target of experiment [5] is T1, human CD20. The experiment can be described thus: LigandTracer Green, 10 nM FITC-labeled mAb on SKBR3-CD20 cells, OneToOne fit, competitive dissociation (100 nM unlabeled mAb of the same clone). The procedure: as §1, §2
Experiment [6] deals with T4, CD20 single mutant A170P (human, UniProt P11836 1-297).
T4 construct: whole, on cells
T4 sequence (looked up): T1 sequence (looked up) with A170P
The experiment in a line: FACS, HEK293F cells transfected with CD20 A170P.
Method: (§4) One day post-transfection, cells were harvested, washed in FACS buffer and stained for 30 min with 5 μg/mL CD20 mAbs on ice. mAb binding was detected with a goat-anti-hIgG-APC or goat-anti-mIgG-APC Ab (Jackson). Cells were measured on a FACS Canto II (BD).

The target of experiment [7] is T1, human CD20. The experiment can be described thus: FACS on Daudi cells.
Experiment [8] deals with T5, CD20 mutant T159K/N163D/N166D (human, UniProt P11836 1-297).
T5 construct: whole, on cells; also called KDD
T5 sequence (looked up): T1 sequence (looked up) with T159K, N163D, N166D
The experiment in a line: FACS, HEK293F cells transfected with CD20 T159K/N163D/N166D, 5 ug/mL mAb.
Method: as §4
Therefore, we first performed a rough epitope mapping experiment with two CD20 mutants, with amino acids mutated in either the small (T159K/N163D/N166D) or larger (A170S/P172S) loop of CD20 (FIG. 4B).

Where a chain is given by its changes, count along the chain named. Names and notes keep the numbering of the source. Ends that are not written are not given here.

B1: IgG1-CD20-2 with the L11V mutation (antibody)
heavy: not shown
light: QIVLSQSPAILSASPGEKVTMTCRASSSVSYMHWYQQKPGSSPKPWIYATSNLASGVPARFSGSGSGTSYSLTISRVEAADAATYYCHQWTFNPPTFGGGTKLEIKRTVAAPSVFIFPPSDEQLKSGTASVVCLLNNFYPREAKVQWKVDNALQSGNSQESVTEQDSKDSTYSLSSTLTLSKADYEKHKVYACEVTHQGLSSPVTKSFNRGEC
notes: Chimeric human IgG1/kappa; leucine to valine at Kabat position 11 of the VH framework; also called IgG1-CD20-2 L11V
Consider B1, for which the binding result in experiment [1] is given as “binds”.

B2: m1 (mIgG2c-CD20 mAb) (antibody, V domains shown)
VH: QAYLQQSGAELVRPGASVKMSCKASGYTFTSYNLHWVKQTPRQGLEWIGAIYPGNGDTSYNQKFKGKATLTVDKSSSTAYMQLSRLTSEDSAVYFCARSNSYGSTYWYFDVWGTGTTVTVSS
VL: QIVLSQSPAVLFASPGEKVTMTCRARSSVSYMDWYQQKPRSSPKPWIYATSNLASGVPARFSGSGSGTSYSLTISRVEAEDAATYYCQQWTSNPPTFGSGTKLEIK
modifications: FITC- or Alexa647-labelled in the kinetic assays; label sites not given
notes: Mouse IgG2c hybridoma mAb; FITC- or Alexa647-labeled in the kinetic assays
For B2, the results for the dissociation constant (Kd) in experiment [2] and in experiment [5] were 1.05 nM and 2.65 nM, respectively. The koff in experiment [2] was determined as 3.91e-05 s⁻¹; in experiment [5], 6.92e-05 s⁻¹. For the same molecule, the kon amounted to 37300 M⁻¹ s⁻¹ in experiment [2] and 26100 M⁻¹ s⁻¹ in experiment [5]. In addition, the binding result in experiment [3] and in experiment [4] was “binds” throughout.

B3: m7 (mIgG2b-CD20 mAb) (antibody, V domains shown)
VH: QAYLQQSGAELVRPGASVKMSCKASGYTFASYNMHWIKQTPRQGLEWIAAIYPGNGDTSYNQKFKGKATLTVDKSSSTAYMQLSSLTSEDSAVYFCARTYYYGSSPYWSFDVWGTGTTVTVSS
VL: DIQMTQSPASLSASVGETVTVTCGASYNIYGALNWYQRKQGKSPQLLIYGATNLADGMSSRFSGSGSGRQYSLKISSLHPDDVATYYCQNVLSNPPTFGGGTKLEIK
notes: Mouse IgG2b hybridoma mAb
Turning to B3, the binding result in experiment [6], in experiment [7] and in experiment [8] was “binds” throughout.
